Test: Particle size of raw materials and micelles by dynamic light scattering (DLS, ZETASIZER NANO-S)
Assay type: physicochemical
Settings: for particle size: DLS after overnight incubation at 37° C., measured at 25° C.; for Particle diameter peak by number / Particle diameter peak by scattering intensity / Zeta Average (average particle diameter): Table 1, raw materials and products in PBS, measured 5 times at 25° C.
Protocol: After vortex, the solution was stood at 37° C. for overnight incubation to bind GFP and the silole dendrimer, and subsequently to form the micelles. The incubation time for this experiment was about 16 to 18 hours. The properties of the micelle particles in the solution were measured by using dynamic light scattering method (DLS; Dynamic light scattering).
Also, the particle size in the reaction mixture was measured at 25° C. by using ZETASIZER NANO-S(manufactured by Malvern Instrument Ltd.) with a laser beam wavelength of 532 nm.
It was measured whether the micelles including each drug are formed in the sample to which each model drug is added; and if the micelles including the drug are formed, their particle size were measured by using the dynamic light scattering method. Here, DiI, Oil orange SS, and goat anti mouse IgG-Alexa 610 were used as drug models.
The particle properties of the target peptide sequence-binding micelle were measured by a dynamic light scattering method as the same as used in the example 1 (see FIG. 11). […] As a result, the particles having the particle size of about 100 nm to 200 nm were confirmed as the same as those in the example 1.

| Molecule | particle size | Particle diameter peak by number [nm] | Particle diameter peak by scattering intensity [nm] | Zeta Average (average particle diameter) [nm] |
| --- | --- | --- | --- | --- |
| 20 μM GFP only: green fluorescent protein, SEQ ID NO: 1, cysteine at position 251, cysteine 60 replaced with serine | about 4 nm | 4.682 | 838.8 | 860.7 |
| C[Si](C)(CCC[Si](CCCBr)(CCCBr)CCCBr)CCC[Si](CCCBr)(CCCBr)CCCBr [50 μM Silole only] | about 650 nm | 649.3 | 664.6 | 894.5 |
